Reference: paper PMC3386190, “The Rhoptry Proteins ROP18 and ROP5 Mediate Toxoplasma gondii Evasion of the Murine, But Not the Human, Interferon-Gamma Response” (PLoS Pathogens, 2012)

Molecular target: the molecule itself
Test: dynamic light scattering; 20 µM Irga6 with 10 mM GTP at 37°C in 50 mM Tris/5 mM MgCl2/2 mM DTT, in the presence or absence of 40 µM (His6)-MBP-tagged ROP5-CIII or (His6)-MBP; mean hydrodynamic radius over 35 minutes

B1: Recombinant Irga6 (residues 1-413) (natural protein)
chain: MGQLFSSPKSDENNDLPSSFTGYFKKFNTGRKIISQEILNLIELRMRKGNIQLTNSAISDALKEIDSSVLNVAVTGETGSGKSSFINTLRGIGNEEEGAAKTGVVEVTMERHPYKHPNIPNVVFWDLPGIGSTNFPPNTYLEKMKFYEYDFFIIISATRFKKNDIDIAKAISMMKKEFYFVRTKVDSDITNEADGKPQTFDKEKVLQDIRLNCVNTFRENGIAEPPIFLLSNKNVCHYDFPVLMDKLISDLPIYKRHNFMVSLPNITDSVIEKKRQFLKQRIWLEGFAADLVNIIPSLTFLLDSDLETLKKSMKFYRTVFGVDETSLQRLARDWEIEVDQVEAMIKSPAVFKPTDEETIQERLSRYIQEFCLANGYLLPKNSFLKEIFYLKYYFLDMVTEDAKTLLKEICLRN
notes: immunity-related GTPase Irga6, mouse, residues 1-413; a TEV cleavage site stands between the tags and the protein; source: recombinant (Lim et al., submitted)
**Q.** Does B1 bind?
**A.** binds
